“And” between values parts separate entries of the source, which are not always exact repeats. Equal entries are not always repeated.
Assays:
[1] = molecular target: MPXV M2 (monkeypox virus M2 protein), His-tagged, wild type (monkeypox virus (Clade I)) (UniProt Q8V554); test: SEC-MALS
[2] = molecular target: MPXV M2 (monkeypox virus M2 protein), His-tagged, wild type (monkeypox virus (Clade I)) (UniProt Q8V554); test: cryo-EM structure
[3] = molecular target: human B7.1 ectodomain, His-tagged (human) (UniProt P33681); test: cryo-EM structure
human B7.1 ectodomain, His-tagged (human), sequence (P33681 35-234): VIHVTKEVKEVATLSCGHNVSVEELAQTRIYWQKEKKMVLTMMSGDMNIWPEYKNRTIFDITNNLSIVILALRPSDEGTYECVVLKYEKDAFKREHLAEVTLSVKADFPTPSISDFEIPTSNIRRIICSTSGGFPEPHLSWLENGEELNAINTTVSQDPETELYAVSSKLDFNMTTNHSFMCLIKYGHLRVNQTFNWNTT

[4] = molecular target: human B7.2 ectodomain, His-tagged (human) (UniProt P42081); test: cryo-EM structure
human B7.2 ectodomain, His-tagged (human), sequence (P42081 26-238): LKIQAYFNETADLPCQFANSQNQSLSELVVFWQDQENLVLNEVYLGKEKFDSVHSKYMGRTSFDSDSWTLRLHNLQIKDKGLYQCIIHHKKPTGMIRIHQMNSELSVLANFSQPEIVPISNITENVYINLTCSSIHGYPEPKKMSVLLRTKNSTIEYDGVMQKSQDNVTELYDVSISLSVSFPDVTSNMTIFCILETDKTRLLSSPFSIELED

[5] = molecular target: human B7.1 ectodomain fused to human Fc (human) (UniProt P33681); test: BLI; […] (10 ug/mL) […]; 10 mM HEPES pH 7.4, 150 mM NaCl, 3 mM EDTA, 0.05% Tween, 1% BSA; 25 °C; 1:1 model; […]
human B7.1 ectodomain fused to human Fc (human), sequence (P33681 35-234): as the sequence (P33681 35-234) above

[6] = molecular target: human B7.2 ectodomain fused to human Fc (human) (UniProt P42081); test: as above
human B7.2 ectodomain fused to human Fc (human), sequence (P42081 26-238): as the sequence (P42081 26-238) above

MPXV M2 (monkeypox virus M2 protein), His-tagged, wild type (from UniProt Q8V554 18-220) (natural protein)
stoichiometry N [1]: 6.12 | stoichiometry N [2]: 6 and 7 | stoichiometry N [3]: 1 | stoichiometry N [4]: 1 | t1/2 (dissociation half-life time) [5]: 6.62 h | t1/2 (dissociation half-life time) [6]: 19.7 h
